According to paper PMC2945410 (Journal of molecular biology, 2010):

Target: the molecule itself
Experiment: SEC

B1: EAL domain of TBD1265 from Thiobacillus denitrificans (aa 487-758) (domain or fragment)
chain: not shown
modifications: Se-Met substituted (for the crystals)
  stoichiometry N: 2
